Results: patent US20230203129A1 (BRACCO IMAGING S P A, published 2023)

Tests used:
Experiment in all cases: ELISA during and after library selection
murine serum albumin = target: T1, murine serum albumin (murine, UniProt P07724 25-608)
T1 construct: also called MSA; mouse serum albumin

bovine serum albumin = target: T2, bovine serum albumin (bovine, UniProt P02769 25-607)
T2 construct: also called BSA

human serum albumin = target: T3, human serum albumin (human, UniProt P02768 25-609)
T3 construct: also called HSA
T3 sequence (P02768 25-609 limits assumed): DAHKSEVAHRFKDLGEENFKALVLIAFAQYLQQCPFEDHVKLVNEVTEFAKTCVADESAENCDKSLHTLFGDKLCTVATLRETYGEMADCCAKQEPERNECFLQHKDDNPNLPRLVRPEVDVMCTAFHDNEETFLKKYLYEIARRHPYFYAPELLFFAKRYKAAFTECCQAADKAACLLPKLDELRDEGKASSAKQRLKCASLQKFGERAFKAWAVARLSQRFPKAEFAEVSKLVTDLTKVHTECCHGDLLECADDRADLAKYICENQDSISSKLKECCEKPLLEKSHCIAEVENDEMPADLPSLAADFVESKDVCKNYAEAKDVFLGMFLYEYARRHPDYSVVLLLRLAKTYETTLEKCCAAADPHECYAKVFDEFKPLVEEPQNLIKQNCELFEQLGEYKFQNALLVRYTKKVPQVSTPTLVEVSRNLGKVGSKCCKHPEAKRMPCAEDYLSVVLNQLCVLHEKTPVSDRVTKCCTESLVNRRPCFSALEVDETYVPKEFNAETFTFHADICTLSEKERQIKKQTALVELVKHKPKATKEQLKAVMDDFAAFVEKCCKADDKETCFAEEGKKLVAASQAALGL

T2 sequence (P02769 25-607 limits assumed): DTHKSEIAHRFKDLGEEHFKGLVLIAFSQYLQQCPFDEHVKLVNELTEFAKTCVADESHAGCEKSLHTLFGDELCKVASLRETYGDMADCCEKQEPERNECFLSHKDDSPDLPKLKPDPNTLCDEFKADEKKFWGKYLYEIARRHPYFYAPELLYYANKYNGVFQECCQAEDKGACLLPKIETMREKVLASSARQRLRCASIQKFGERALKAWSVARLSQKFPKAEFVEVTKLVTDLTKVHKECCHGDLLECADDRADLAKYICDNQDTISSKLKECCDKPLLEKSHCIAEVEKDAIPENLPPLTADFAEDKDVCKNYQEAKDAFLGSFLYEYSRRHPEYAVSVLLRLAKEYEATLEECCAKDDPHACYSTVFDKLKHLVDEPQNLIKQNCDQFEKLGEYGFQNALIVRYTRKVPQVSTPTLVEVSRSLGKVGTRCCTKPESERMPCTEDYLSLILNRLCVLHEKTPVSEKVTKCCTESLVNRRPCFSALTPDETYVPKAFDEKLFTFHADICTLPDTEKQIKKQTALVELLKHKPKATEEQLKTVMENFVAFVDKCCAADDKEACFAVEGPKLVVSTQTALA

binding result (murine serum albumin): no binding | binding result (bovine serum albumin): no binding | binding result (human serum albumin): no binding
B1: affitin Aff03 (designed binder)
chain: VKVKFGHMGEEKEVDTSKIYAVNRAGKFVHFAYDDNGKFGSGSVPEKDAPKELLDMLARAEREK
